Results from PMC7522650, “An Alternative Binding Mode of IGHV3-53 Antibodies to the SARS-CoV-2 Receptor Binding Domain” (Cell Reports, 2020).

Biological target: SARS-CoV-2 spike (S) protein receptor-binding domain (RBD), residues 319-541 (SARS-CoV-2, Wuhan-Hu-1 (GenBank …, UniProt P0DTC2))
Assay: BLI
Conditions: both partners purified

| Binder | Kd [nM] | fold decrease in other [fold] |
| --- | --- | --- |
| COVA2-04 Fab (Fab, V domains shown) VH: QVQLVETGGGLIQPGGSLRLSCAASGFTVSSNYMSWVRQAPGKGLEWVSVIYSGGSTFYADSVKGRFTISRDNSKNTLYLQMNSLRAEDTAVYYCARDLERAGGMDVWGQGTMVTVSS VL: not shown | 40 | – |
| COVA2-39 Fab (Fab, V domains shown) VH: QVQLVETGGGLIQPGGSLRLSCAASGFTVSSNYMSWVRQAPGKGLEWVSVIYTGGTTYYADSVKGRFTISRDNSKNTLYLQMNSLRAEDTAVYYCARAHVDTAMVESGAFDIWGQGTRVTVSS VL: QSALTQPASVSGSPGQSITISCTGTSSDVGSYNLVSWYQQHPGKAPKLMIYEVTKRPSGVSNRFSGSKSGNTASLTISGLQAEDEADYYCCSYAGSSTWVFGGGTKLTVL | 21 | – |
| COVA2-39 with the 53TGGT56 motif reverted to the germline-encoded 53SGGS56 motif (Fab, V domains shown) VH: QVQLVETGGGLIQPGGSLRLSCAASGFTVSSNYMSWVRQAPGKGLEWVSVIYSGGSTYYADSVKGRFTISRDNSKNTLYLQMNSLRAEDTAVYYCARAHVDTAMVESGAFDIWGQGTRVTVSS VL: QSALTQPASVSGSPGQSITISCTGTSSDVGSYNLVSWYQQHPGKAPKLMIYEVTKRPSGVSNRFSGSKSGNTASLTISGLQAEDEADYYCCSYAGSSTWVFGGGTKLTVL | – | ≥ 50 |
